Measurements: patent US20210087244A1 (UNIVERSITY OF BRITISH COLUMBIA, published 2021)

Experiments:
Experiment in all cases: SPR direct binding (MASS-1), hybridoma supernatant over immobilized antigen
[1] = target: T1, linear CGHHQKG-conjugated-BSA (SEQ ID NO: 2) (bovine, UniProt P02769 25-607, conjugated to BSA)
T1 construct: also called Linear-Peptide; linear peptide-BSA
Procedure: (§1) All SPR measurements were performed using a Molecular Affinity Screening System (MASS-1) (Sierra Sensors GmbH, Hamburg, Germany), an analytical biosensor that employs high intensity laser light and high speed optical scanning to monitor binding interactions in real time. The primary screening of tissue culture supernatants was performed using an SPR direct binding assay, whereby BSA-conjugated peptides, A-beta42 Monomer and A-beta42 Oligomer are covalently immobilized on individual flow cells of a High Amine Capacity (HAC) sensorchip (Sierra Sensors GmbH, Hamburg, Germany) and antibodies flowed over the surface. Protein G purified mAbs were analyzed in a secondary screen using an SPR indirect (capture) binding assay, whereby the antibodies were captured on a protein A-derivatized sensorchip (XanTec Bioanalytics GmbH, Duesseldorf, Germany) and A-beta40 Monomer, A-beta42 Oligomer, soluble brain extracts and cerebrospinal fluid flowed over the surface. The specificity of the antibodies was verified in an SPR direct binding assay by covalently immobilizing A-beta42 Monomer and A-beta42 Oligomer on individual flow cells of a HAC sensorchip and flowing purified mAbs.
(§2) Clones were retested for their ability to bind cyclic peptide, linear peptide, A-beta 1-42 monomer and A-beta 1-42 oligomers prepared as described above. Binding assays were performed using SPR as described above (Direct binding assays).

[2] = target: T2, cyclo(CGHHQKG)-conjugated-BSA (SEQ ID NO: 2) (bovine, UniProt P02769 25-607, head-to-tail cyclized (amide bond between N- and C-terminus); conjugated to SMCC-activated BSA)
T2 construct: also called Cyclic-Peptide; cyclic peptide-BSA
Procedure: as §1, §2

A-beta42 Oligomer = target: T3, A-beta42 Oligomer (human)
T3 construct: also called A β 42 Oligomer; A-beta 1-42 oligomers
Procedure: as §1, §2

T2 sequence (P02769 25-607 limits assumed): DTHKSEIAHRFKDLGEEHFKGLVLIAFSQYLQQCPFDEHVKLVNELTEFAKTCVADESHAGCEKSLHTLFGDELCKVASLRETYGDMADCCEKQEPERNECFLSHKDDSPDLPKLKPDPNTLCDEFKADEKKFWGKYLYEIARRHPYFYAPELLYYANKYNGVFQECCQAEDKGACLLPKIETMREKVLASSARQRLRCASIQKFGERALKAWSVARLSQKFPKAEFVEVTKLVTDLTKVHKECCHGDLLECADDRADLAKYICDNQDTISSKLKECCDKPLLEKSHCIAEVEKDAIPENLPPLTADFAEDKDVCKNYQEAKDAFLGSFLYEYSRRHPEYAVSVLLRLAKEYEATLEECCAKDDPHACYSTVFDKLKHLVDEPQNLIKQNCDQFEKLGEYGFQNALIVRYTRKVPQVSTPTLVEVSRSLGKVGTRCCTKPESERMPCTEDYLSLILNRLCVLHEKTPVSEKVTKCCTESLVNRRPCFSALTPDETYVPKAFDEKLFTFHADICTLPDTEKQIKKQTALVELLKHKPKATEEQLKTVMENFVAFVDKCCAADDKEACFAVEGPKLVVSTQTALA
T1 sequence (P02769 25-607 limits assumed): as above
T3 sequence (peptide, as listed by the source): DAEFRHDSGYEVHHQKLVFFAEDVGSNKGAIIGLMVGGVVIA

B1: 301-12G11 (17) (antibody, V domains shown)
VH: QVQLQQPGAELVKPGASVKMSCKASGYSFTSYWINWVKQRPGQGLEWIGDVHPGRGVSTYNAKFKSKATLTLDTSSSTAYMQLSSLTSEDSAVYYCSRSHGNTYWFFDVWGAGTTVTVSS
VL: DVLMTQTPLSLPVSLGDQASISCRSSQSIVHSNGNTYLEWYLQKPGQSPKLLIYKVSNRFSGVPDRFSGSGSGTDFTLKISRVEAEDLGVYYCFQGSHVPFTFGSGTKLEIKR
notes: they begin with a leader (MGWSC.../MKLPV...) and end with a few constant-region residues
- response units (RU) [1]: 1150 RU
- response units (RU) [2]: 698 RU
- response units (RU) (A-beta42 Oligomer): 66.8 RU
